# According to IntAct's records for PubMed 28712572:
# Target: gbrap_human GABARAP (UniProt O95166)
# Sequence (O95166 whole entry): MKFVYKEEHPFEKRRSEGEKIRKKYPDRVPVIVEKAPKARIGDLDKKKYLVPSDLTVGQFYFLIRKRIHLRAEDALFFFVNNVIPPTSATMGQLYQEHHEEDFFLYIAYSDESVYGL
row,Substance,effect of a mutation on the interaction
1,"Pericentriolar material 1 protein (Homo sapiens), Q15154 F1963H",disrupting interaction strength
2,"Pericentriolar material 1 protein (Homo sapiens), Q15154 F1963I",disrupting interaction strength
3,"Pericentriolar material 1 protein (Homo sapiens), Q15154 F1963K",disrupting interaction strength
4,"Pericentriolar material 1 protein (Homo sapiens), Q15154 F1963L",disrupting interaction strength
5,"Pericentriolar material 1 protein (Homo sapiens), Q15154 F1963M",disrupting interaction strength
6,"Pericentriolar material 1 protein (Homo sapiens), Q15154 F1963N",disrupting interaction strength
7,"Pericentriolar material 1 protein (Homo sapiens), Q15154 F1963P",disrupting interaction strength
8,"Pericentriolar material 1 protein (Homo sapiens), Q15154 F1963Q",disrupting interaction strength
9,"Pericentriolar material 1 protein (Homo sapiens), Q15154 F1963R",disrupting interaction strength
10,"Pericentriolar material 1 protein (Homo sapiens), Q15154 F1963S",disrupting interaction strength
11,"Pericentriolar material 1 protein (Homo sapiens), Q15154 F1963T",disrupting interaction strength
12,"Pericentriolar material 1 protein (Homo sapiens), Q15154 F1963V",disrupting interaction strength
13,"Pericentriolar material 1 protein (Homo sapiens), Q15154 F1963W",with no effect
14,"Pericentriolar material 1 protein (Homo sapiens), Q15154 F1963Y",decreasing interaction strength
15,"Pericentriolar material 1 protein (Homo sapiens), Q15154 G1952A",with no effect
16,"Pericentriolar material 1 protein (Homo sapiens), Q15154 G1952C",with no effect
17,"Pericentriolar material 1 protein (Homo sapiens), Q15154 G1952D",with no effect
18,"Pericentriolar material 1 protein (Homo sapiens), Q15154 G1952E",with no effect
19,"Pericentriolar material 1 protein (Homo sapiens), Q15154 G1952F",with no effect
20,"Pericentriolar material 1 protein (Homo sapiens), Q15154 G1952H",with no effect
21,"Pericentriolar material 1 protein (Homo sapiens), Q15154 G1952I",with no effect
22,"Pericentriolar material 1 protein (Homo sapiens), Q15154 G1952K",with no effect
23,"Pericentriolar material 1 protein (Homo sapiens), Q15154 G1952L",with no effect

row,Substance,effect of a mutation on the interaction
1,"Pericentriolar material 1 protein (Homo sapiens), Q15154 G1952M",with no effect
2,"Pericentriolar material 1 protein (Homo sapiens), Q15154 G1952N",with no effect
3,"Pericentriolar material 1 protein (Homo sapiens), Q15154 G1952P",with no effect
4,"Pericentriolar material 1 protein (Homo sapiens), Q15154 G1952Q",with no effect
5,"Pericentriolar material 1 protein (Homo sapiens), Q15154 G1952R",with no effect
6,"Pericentriolar material 1 protein (Homo sapiens), Q15154 G1952S",with no effect
7,"Pericentriolar material 1 protein (Homo sapiens), Q15154 G1952T",with no effect
8,"Pericentriolar material 1 protein (Homo sapiens), Q15154 G1952V",with no effect
9,"Pericentriolar material 1 protein (Homo sapiens), Q15154 G1952W",with no effect
10,"Pericentriolar material 1 protein (Homo sapiens), Q15154 G1952Y",with no effect
11,"Pericentriolar material 1 protein (Homo sapiens), Q15154 I1954A",with no effect
12,"Pericentriolar material 1 protein (Homo sapiens), Q15154 I1954C",with no effect
13,"Pericentriolar material 1 protein (Homo sapiens), Q15154 I1954D",with no effect
14,"Pericentriolar material 1 protein (Homo sapiens), Q15154 I1954E",with no effect
15,"Pericentriolar material 1 protein (Homo sapiens), Q15154 I1954F",with no effect
16,"Pericentriolar material 1 protein (Homo sapiens), Q15154 I1954G",with no effect
17,"Pericentriolar material 1 protein (Homo sapiens), Q15154 I1954H",with no effect
18,"Pericentriolar material 1 protein (Homo sapiens), Q15154 I1954K",with no effect
19,"Pericentriolar material 1 protein (Homo sapiens), Q15154 I1954L",with no effect
20,"Pericentriolar material 1 protein (Homo sapiens), Q15154 I1954M",with no effect
21,"Pericentriolar material 1 protein (Homo sapiens), Q15154 I1954N",with no effect
22,"Pericentriolar material 1 protein (Homo sapiens), Q15154 I1954P",with no effect
23,"Pericentriolar material 1 protein (Homo sapiens), Q15154 I1954Q",with no effect

row,Substance,effect of a mutation on the interaction
1,"Pericentriolar material 1 protein (Homo sapiens), Q15154 I1954R",with no effect
2,"Pericentriolar material 1 protein (Homo sapiens), Q15154 I1954S",with no effect
3,"Pericentriolar material 1 protein (Homo sapiens), Q15154 I1954T",with no effect
4,"Pericentriolar material 1 protein (Homo sapiens), Q15154 I1954V",decreasing interaction strength
5,"Pericentriolar material 1 protein (Homo sapiens), Q15154 I1954W",with no effect
6,"Pericentriolar material 1 protein (Homo sapiens), Q15154 I1954Y",with no effect
7,"Pericentriolar material 1 protein (Homo sapiens), Q15154 I1975A",with no effect
8,"Pericentriolar material 1 protein (Homo sapiens), Q15154 I1975C",with no effect
9,"Pericentriolar material 1 protein (Homo sapiens), Q15154 I1975D",with no effect
10,"Pericentriolar material 1 protein (Homo sapiens), Q15154 I1975E",with no effect
11,"Pericentriolar material 1 protein (Homo sapiens), Q15154 I1975F",with no effect
12,"Pericentriolar material 1 protein (Homo sapiens), Q15154 I1975G",with no effect
13,"Pericentriolar material 1 protein (Homo sapiens), Q15154 I1975H",with no effect
14,"Pericentriolar material 1 protein (Homo sapiens), Q15154 I1975K",with no effect
15,"Pericentriolar material 1 protein (Homo sapiens), Q15154 I1975L",with no effect
16,"Pericentriolar material 1 protein (Homo sapiens), Q15154 I1975M",with no effect
17,"Pericentriolar material 1 protein (Homo sapiens), Q15154 I1975N",with no effect
18,"Pericentriolar material 1 protein (Homo sapiens), Q15154 I1975P",with no effect
19,"Pericentriolar material 1 protein (Homo sapiens), Q15154 I1975Q",with no effect
20,"Pericentriolar material 1 protein (Homo sapiens), Q15154 I1975R",with no effect
21,"Pericentriolar material 1 protein (Homo sapiens), Q15154 I1975S",with no effect
22,"Pericentriolar material 1 protein (Homo sapiens), Q15154 I1975T",with no effect
23,"Pericentriolar material 1 protein (Homo sapiens), Q15154 I1975V",with no effect
